One block for each binder: values may come before it. Numbered stars: 1 amine (or outer) side, 2 acyl side, 3 side chain; on linkers, the order of the positions; unused ones are H or OH. Square brackets hold non-standard residues; d marks the D form. Side chains are listed from the residue outwards. * marks the point of attachment. C20 diacid = O=C(O)CCCCCCCCCCCCCCCCCCC(=O)*; C18 diacid = O=C(O)CCCCCCCCCCCCCCCCC(=O)*; γGlu = O=C(O)[C@H](CCC(=O)[*:2])N[*:1]; AEEA = NCCOCCOCC(=O)O; Aib = CC(C)(N)C(=O)O
Tests used:
Assay in all cases: cell-based or functional assay
human GLP-1 receptor [1] = target: T1, human GLP-1 receptor (human, UniProt P43220 24-463)
human GIP receptor [2] = target: T2, human GIP receptor (human, UniProt P48546 22-466)
T2 sequence (looked up): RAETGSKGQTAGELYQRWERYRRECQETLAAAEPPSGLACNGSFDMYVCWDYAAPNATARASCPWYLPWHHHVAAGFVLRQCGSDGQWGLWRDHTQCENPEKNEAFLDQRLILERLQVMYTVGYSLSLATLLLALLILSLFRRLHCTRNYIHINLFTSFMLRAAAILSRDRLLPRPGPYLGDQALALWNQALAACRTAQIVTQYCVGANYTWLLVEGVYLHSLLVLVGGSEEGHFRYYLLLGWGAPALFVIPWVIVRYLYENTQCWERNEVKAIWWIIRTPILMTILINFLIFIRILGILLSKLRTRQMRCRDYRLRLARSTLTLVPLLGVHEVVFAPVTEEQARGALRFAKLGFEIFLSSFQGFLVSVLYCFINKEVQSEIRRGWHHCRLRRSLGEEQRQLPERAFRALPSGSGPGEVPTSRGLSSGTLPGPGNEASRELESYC

[3] = target: T3, human amylin-3(a) receptor (human, UniProt P30988 25-474; O60896 24-148)
T3 sequence (looked up) 1: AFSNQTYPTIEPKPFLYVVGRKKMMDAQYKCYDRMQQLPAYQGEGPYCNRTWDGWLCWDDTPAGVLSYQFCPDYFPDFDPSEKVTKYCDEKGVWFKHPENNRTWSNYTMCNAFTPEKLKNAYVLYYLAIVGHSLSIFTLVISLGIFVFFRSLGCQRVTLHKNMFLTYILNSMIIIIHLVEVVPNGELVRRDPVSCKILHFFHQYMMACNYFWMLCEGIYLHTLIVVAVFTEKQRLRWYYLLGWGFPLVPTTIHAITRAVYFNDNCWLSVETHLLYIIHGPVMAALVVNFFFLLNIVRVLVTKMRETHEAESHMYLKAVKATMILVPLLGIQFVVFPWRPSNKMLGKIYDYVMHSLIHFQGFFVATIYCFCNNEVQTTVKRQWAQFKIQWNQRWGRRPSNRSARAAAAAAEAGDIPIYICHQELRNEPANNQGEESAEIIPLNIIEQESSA
T3 sequence (looked up) 2: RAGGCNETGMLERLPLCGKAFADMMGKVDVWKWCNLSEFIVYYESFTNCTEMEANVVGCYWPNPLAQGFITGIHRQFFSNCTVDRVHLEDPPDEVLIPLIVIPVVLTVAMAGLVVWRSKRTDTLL

human GLP-1 receptor [4] = target: T1, human GLP-1 receptor; remark: listed apart in the source
human GIP receptor [5] = target: T2, human GIP receptor; remark: listed apart in the source
[6] = target: T3, human amylin-3(a) receptor; remark: listed apart in the source

hGLP-1R Potency, no HSA, EC50 [pM] (human GLP-1 receptor [1]): 16.1 pM
hGIPR Potency, no HSA, EC50 [pM] (human GIP receptor [2]): 2.9 pM
hAMYR3 Potency, no HSA, EC50 [pM] [3]: 3.91 pM
hGLP-1R Potency, 1% HSA, EC50 [pM] (human GLP-1 receptor [4]): 130 pM
hGIPR Potency, 1% HSA, EC50 [pM] (human GIP receptor [5]): 29.5 pM
hAMYR3 Potency, 1% HSA, EC50 [pM] [6]: 377 pM
B1: Compound 94 (peptide)
peptide: Y[Aib]EGTFTSDYSILLEEQAAREFIEWLLAGGPSRGEASHLSTAQTQRLSAELHK([AEEA-AEEA-γGlu-C20 diacid])LATLPRTETGSGSP-NH2

hGLP-1R Potency, no HSA, EC50 [pM] (human GLP-1 receptor [1]): 3.79 pM
hGIPR Potency, no HSA, EC50 [pM] (human GIP receptor [2]): 3.21 pM
hAMYR3 Potency, no HSA, EC50 [pM] [3]: 2.26 pM
hGLP-1R Potency, 1% HSA, EC50 [pM] (human GLP-1 receptor [4]): 17.4 pM
hGIPR Potency, 1% HSA, EC50 [pM] (human GIP receptor [5]): 9.31 pM
hAMYR3 Potency, 1% HSA, EC50 [pM] [6]: 28.8 pM
B2: Compound 91 (peptide)
peptide: H[Aib]HGTFTSDYSILLEEQAAREFIEWLLAGGPSSGAGQAPGQAPGASHLSTAQTQRLSAELHRLK([AEEA-AEEA-γGlu-C18 diacid])TLPRTETGSGSP-NH2

hGLP-1R Potency, no HSA, EC50 [pM] (human GLP-1 receptor [1]): 4.12 pM
hGIPR Potency, no HSA, EC50 [pM] (human GIP receptor [2]): 5.68 pM
hAMYR3 Potency, no HSA, EC50 [pM] [3]: 3.7 pM
hGLP-1R Potency, 1% HSA, EC50 [pM] (human GLP-1 receptor [4]): 48.8 pM
hGIPR Potency, 1% HSA, EC50 [pM] (human GIP receptor [5]): 40.4 pM
hAMYR3 Potency, 1% HSA, EC50 [pM] [6]: 102 pM
B8: Compound 88 (peptide)
peptide: H[Aib]HGTFTSDYSILLEEQAAREFIEWLLAGGPSSGEASHLSTAALGRLSAELHK([AEEA-AEEA-γGlu-C18 diacid])LATLPRTETGSGSP-NH2

Second part, the binder before the results:

B3: Compound 81 (peptide)
peptide: Y[Aib]EGTFTSDYSILLEEQAAREFIEWLLAGGPSSGEASHLSTAQTQRLSAELHRLATLPK([AEEA-AEEA-γGlu-C18 diacid])TETGSGSP-NH2
hGLP-1R Potency, no HSA, EC50 [pM] (human GLP-1 receptor [1]): 16 pM
hGIPR Potency, no HSA, EC50 [pM] (human GIP receptor [2]): 3.31 pM
hAMYR3 Potency, no HSA, EC50 [pM] [3]: 4.07 pM
hGLP-1R Potency, 1% HSA, EC50 [pM] (human GLP-1 receptor [4]): 51.4 pM
hGIPR Potency, 1% HSA, EC50 [pM] (human GIP receptor [5]): 15.8 pM
hAMYR3 Potency, 1% HSA, EC50 [pM] [6]: 188 pM

B4: Compound 83 (peptide)
peptide: H[Aib]HGTFTSDYSILLEEQAAREFIEWLLAGGPSSGEASHLSTAQTQRLSAELHRLK([AEEA-AEEA-γGlu-C18 diacid])TLPRTETGSGSP-NH2
hGLP-1R Potency, no HSA, EC50 [pM] (human GLP-1 receptor [1]): 2.3 pM
hGIPR Potency, no HSA, EC50 [pM] (human GIP receptor [2]): 2.92 pM
hAMYR3 Potency, no HSA, EC50 [pM] [3]: 2.9 pM
hGLP-1R Potency, 1% HSA, EC50 [pM] (human GLP-1 receptor [4]): 9.89 pM
hGIPR Potency, 1% HSA, EC50 [pM] (human GIP receptor [5]): 13.6 pM
hAMYR3 Potency, 1% HSA, EC50 [pM] [6]: 45.7 pM

B5: Compound 85 (peptide)
peptide: H[Aib]HGTFTSDYSILLEEQAAREFIEWLLAGGPSSGEASHLSTAQTQRLSAELHK([AEEA-AEEA-γGlu-C18 diacid])LATLPRTETGSGAP-NH2
hGLP-1R Potency, no HSA, EC50 [pM] (human GLP-1 receptor [1]): 3.52 pM
hGIPR Potency, no HSA, EC50 [pM] (human GIP receptor [2]): 2.71 pM
hAMYR3 Potency, no HSA, EC50 [pM] [3]: 4.4 pM
hGLP-1R Potency, 1% HSA, EC50 [pM] (human GLP-1 receptor [4]): 30.3 pM
hGIPR Potency, 1% HSA, EC50 [pM] (human GIP receptor [5]): 14.6 pM
hAMYR3 Potency, 1% HSA, EC50 [pM] [6]: 250 pM

B6: Compound 87 (peptide)
peptide: H[Aib]HGTFTSDYSILLEEQAAREFIEWLLAGGPSSGEASHLSTAALGRLSAK([AEEA-AEEA-γGlu-C18 diacid])LHRLATLPRTETGSGSP-NH2
hGLP-1R Potency, no HSA, EC50 [pM] (human GLP-1 receptor [1]): 8.49 pM
hGIPR Potency, no HSA, EC50 [pM] (human GIP receptor [2]): 7.26 pM
hAMYR3 Potency, no HSA, EC50 [pM] [3]: 4.99 pM
hGLP-1R Potency, 1% HSA, EC50 [pM] (human GLP-1 receptor [4]): 39.3 pM
hGIPR Potency, 1% HSA, EC50 [pM] (human GIP receptor [5]): 38.6 pM
hAMYR3 Potency, 1% HSA, EC50 [pM] [6]: 36.5 pM

B7: Compound 86 (peptide)
peptide: H[Aib]HGTFTSDYSILLEEQAAREFIEWLLAGGPSK([AEEA-AEEA-γGlu-C18 diacid])GAPPPSGGGASELSTAALGRLSAELHRLATLPRTETGSGSP-NH2
hGLP-1R Potency, no HSA, EC50 [pM] (human GLP-1 receptor [1]): 6.69 pM
hGIPR Potency, no HSA, EC50 [pM] (human GIP receptor [2]): 5.11 pM
hAMYR3 Potency, no HSA, EC50 [pM] [3]: 3.31 pM
hGLP-1R Potency, 1% HSA, EC50 [pM] (human GLP-1 receptor [4]): 130 pM
hGIPR Potency, 1% HSA, EC50 [pM] (human GIP receptor [5]): 122 pM
hAMYR3 Potency, 1% HSA, EC50 [pM] [6]: 58.4 pM

B9: Compound 79 (peptide)
peptide: Y[Aib]EGTFTSDYSILLEEQAAREFIEWLLAGGPSSGEASHLSTAQTQRLSAK([AEEA-AEEA-γGlu-C18 diacid])LHRLATLPRTETGSGSP-NH2
hGLP-1R Potency, no HSA, EC50 [pM] (human GLP-1 receptor [1]): 38.7 pM
hGIPR Potency, no HSA, EC50 [pM] (human GIP receptor [2]): 4.7 pM
hAMYR3 Potency, no HSA, EC50 [pM] [3]: 3.53 pM
hGLP-1R Potency, 1% HSA, EC50 [pM] (human GLP-1 receptor [4]): 168 pM
hGIPR Potency, 1% HSA, EC50 [pM] (human GIP receptor [5]): 24.7 pM
hAMYR3 Potency, 1% HSA, EC50 [pM] [6]: 53.4 pM
